We go through 1 molecule from doi:10.64898/2025.12.03.691989 (bioRxiv, 2025).

The target of assay [1] is T1, human UBA6 (full-length, amino acid residues 1-1052) (human, UniProt A0AVT1 1-1052).
T1 sequence (looked up): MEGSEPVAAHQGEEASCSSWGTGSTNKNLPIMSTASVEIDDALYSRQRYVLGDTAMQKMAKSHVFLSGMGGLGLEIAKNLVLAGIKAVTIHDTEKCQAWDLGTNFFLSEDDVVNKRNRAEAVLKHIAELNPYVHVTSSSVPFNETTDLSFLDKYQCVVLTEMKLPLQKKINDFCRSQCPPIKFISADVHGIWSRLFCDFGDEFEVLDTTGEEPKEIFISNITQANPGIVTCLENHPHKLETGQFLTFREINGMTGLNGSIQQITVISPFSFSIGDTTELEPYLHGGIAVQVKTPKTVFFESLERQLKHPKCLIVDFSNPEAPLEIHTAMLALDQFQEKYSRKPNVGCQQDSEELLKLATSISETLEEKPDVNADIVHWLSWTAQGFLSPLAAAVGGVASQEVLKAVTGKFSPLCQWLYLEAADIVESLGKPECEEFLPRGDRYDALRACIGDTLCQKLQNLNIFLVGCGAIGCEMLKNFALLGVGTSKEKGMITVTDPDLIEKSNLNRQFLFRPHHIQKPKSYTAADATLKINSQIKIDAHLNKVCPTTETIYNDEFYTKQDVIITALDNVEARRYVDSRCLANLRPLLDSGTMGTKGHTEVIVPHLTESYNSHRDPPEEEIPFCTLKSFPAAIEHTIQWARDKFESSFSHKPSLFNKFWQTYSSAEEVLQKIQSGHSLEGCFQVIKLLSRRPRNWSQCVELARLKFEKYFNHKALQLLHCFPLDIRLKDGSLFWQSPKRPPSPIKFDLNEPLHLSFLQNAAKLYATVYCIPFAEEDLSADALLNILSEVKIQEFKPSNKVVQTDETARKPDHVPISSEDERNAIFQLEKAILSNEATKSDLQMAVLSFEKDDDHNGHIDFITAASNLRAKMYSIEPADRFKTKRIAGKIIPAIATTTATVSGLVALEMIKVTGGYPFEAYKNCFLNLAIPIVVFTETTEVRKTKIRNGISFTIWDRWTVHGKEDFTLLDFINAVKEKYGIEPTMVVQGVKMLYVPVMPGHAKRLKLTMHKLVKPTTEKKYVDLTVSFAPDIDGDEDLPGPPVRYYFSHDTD
As to the kind of experiment: MST.

In another assay the target is T2, human UBA1 (human, UniProt P22314 1-1058).
T2 sequence (looked up): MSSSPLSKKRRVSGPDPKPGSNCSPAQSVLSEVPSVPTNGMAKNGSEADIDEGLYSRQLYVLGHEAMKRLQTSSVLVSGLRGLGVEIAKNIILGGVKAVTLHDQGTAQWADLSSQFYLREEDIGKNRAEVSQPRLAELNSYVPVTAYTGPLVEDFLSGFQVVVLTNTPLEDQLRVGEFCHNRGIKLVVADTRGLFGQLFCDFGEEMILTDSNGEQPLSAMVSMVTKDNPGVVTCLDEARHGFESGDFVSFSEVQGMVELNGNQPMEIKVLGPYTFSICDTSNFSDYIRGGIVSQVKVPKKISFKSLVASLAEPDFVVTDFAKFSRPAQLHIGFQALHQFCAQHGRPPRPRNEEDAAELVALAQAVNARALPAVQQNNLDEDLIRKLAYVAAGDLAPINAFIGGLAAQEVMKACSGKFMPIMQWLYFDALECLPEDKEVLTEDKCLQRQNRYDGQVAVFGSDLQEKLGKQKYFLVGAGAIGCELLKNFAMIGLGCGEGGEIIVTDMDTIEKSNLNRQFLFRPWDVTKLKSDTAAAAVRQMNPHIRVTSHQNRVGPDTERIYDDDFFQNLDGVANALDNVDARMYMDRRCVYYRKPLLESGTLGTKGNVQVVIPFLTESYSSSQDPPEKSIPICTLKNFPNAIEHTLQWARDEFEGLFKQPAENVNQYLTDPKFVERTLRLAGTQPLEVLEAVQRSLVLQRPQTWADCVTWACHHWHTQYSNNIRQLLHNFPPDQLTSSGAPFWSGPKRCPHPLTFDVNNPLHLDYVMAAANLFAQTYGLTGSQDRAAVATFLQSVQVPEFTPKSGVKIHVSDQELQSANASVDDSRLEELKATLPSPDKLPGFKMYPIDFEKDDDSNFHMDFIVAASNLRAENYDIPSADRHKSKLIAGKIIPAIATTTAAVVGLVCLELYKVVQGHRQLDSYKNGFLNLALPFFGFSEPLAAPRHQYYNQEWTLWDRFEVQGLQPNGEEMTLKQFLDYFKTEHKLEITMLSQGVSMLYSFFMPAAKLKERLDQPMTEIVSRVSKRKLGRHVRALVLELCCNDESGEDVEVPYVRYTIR
Briefly: MST.

B1: BIRC6 UBC domain (amino acid residues 4520-4857) (domain or fragment)
chain: not shown
Consider B1, for which the Kd (as a rule, the free concentration of one partner at which half of the binding sites on the other are occupied at equilibrium, for simple one-to-one binding) in assay [1] is 23 µM; in the assay with human UBA1, 13 µM.
